# Test: yeast display, Sf9 membrane polyspecificity reagent, FACS + sequencing; frameworks hold sequencing errors
# Procedure, shortened: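 In a synthetic yeast display library (Saccharomyces cerevisiae BJ5465), nanobody expression was induced with galactose for 36–48 hours. FACS gates were set low and high (top ~1%) using anti-HA fluorescence for expression and streptavidin fluorescence for binding of the Sf9 membrane reagent. Each polyreactivity label is drawn from the gate of origin.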
row,Sequence,polyreactivity (PSR sort gate)
1,QVQLVDSGGGLVQAGGSLSLSCAASGSTFVVNAMGWYRQAPGKERELVAAITQSGGSTFYADSVKGRFTISRDNAKNTVYLQMNSLKPEDTAVYYWGQGTQVTVSS,low polyreactivity
2,QVQLVDSGGGLVQAGGSLSLSCAASGYTFDTNAMGWYRQAPGKERELVAAIDFSGGTTYADSVKGRFTISRDNAKNTVYLQMNSLKPEDTAVYYCSADHSGGSRYDYWGQGTQVTVSS,low polyreactivity
3,QVQLVDSGGGLVQAGGTLRLSCAASGRTFSSYAMGWYIQAPGKERELVSAISWSGGITYYADSVKVRFTISRDNAKNTVYLQMNSLKPEDTAVYYCAVALTRRKSYEYSGGFWGQGTQVTVSS,high polyreactivity
4,QVQLVDSGGGLVQAGGTLRLSCAATGRTVSKYAMGWYRQAPGKERELVAAITRSGGRTYYADSVKGRFTISRDNAKNTVYLQMNSLKPEDTAVYYCARTTNQHTLATEDDYWGQGTQVTVSS,high polyreactivity
5,QVQLVDSGGGLVQAGVSLRLSCAASGFIFYRYAMVWYRQAPGKERELVAAINWSGGGTYYADSVKGRFTISRDNAKNTVYLLMNSLKPEDTAVYYCAAVRSFRGSYWYEYWGQGSQVTVSS,high polyreactivity
6,QVQLVDSGGGLVQAVGSLRLSCAASGSIFRLNAMGWYRQAPGKERDLVGAITWSDSSTYYADSVKGRFTISRDNAKNTVYLQMNSLKPEDTAVYYCAADPQSYKYDYWGQGTQVTVSS,low polyreactivity
7,QVQLVDSGGGLVQGGGSLRLSCAASGRTFGIYPMRWYRPAPGKERELVAAISRRGTSTYYADTVKGRFTISRDNAKNTVYLQLNSLKPEDTAVYYCATVGATVDNRDDYWGQGTQVTVSS,high polyreactivity
8,QVQLVDSGGGSVQAGGSLRLSCAASGSTFYENAMGWYREAPGKETELVAASTWSGGRTYYADSVKGRFTISRDNAKNTVYLQMYSLKPEDTAVYYCNARARSRKFYYWGQGTQVTVSS,high polyreactivity
9,QVQLVDSGRGLVQAGGSLRLSCAASGFIFNPYVMGWYRQAPGKERELVAVITSGGSTNYADSVKGRFTISRDNAKNTVYLQMNSLKPEDTAVYYCNVDRRPYYVWRVTYDYWGQGTQVTVSS,low polyreactivity
10,QVQLVDSGVGLVQAGGSLRLSCAASGRIFSVYAMGRYRHAPGKERELVASISSGGSTNYADSVKGRFTISRDNAKNTVYLQMNSLKPEDTAVYYCAADYWYRLFWYYGAPLDYWGLGTQVTVSS,low polyreactivity
11,QVQLVDSRGGLDQAGGSHRLSCAASGSTFSTNVMGWYRQAPGKERELVAAISISGTTTYYADSVKGRFTISRDNAKNTVYLQMNSLKPEDTAVYYCAAENYVAWTWHDYWGQGTQVTVSS,high polyreactivity
12,QVQLVDSRGGLVQAGGSLRLSCAASGFIFSRYAMGWSRQAPGKERELVAAISYRGGSTYYADSVKGRFTISRDNAKNPVYLQMNSLKPEDTAVYYCAASLRYYGLEMDYWGQGTQVTVSS,high polyreactivity
13,QVQLVDSRGGLVQAGRSLRLSCAASGIIFFAYAMGWYRQAPGKERELVAAISSSGGRTYYADSVKGRFTISRDKAKNTVYLQMNSLKPEDTAVYYCNARWHGSFDYWGQGTQVTVSS,low polyreactivity
14,QVQLVDSRGLLVQAGGSLRLSCAASGSTYSYYAMGWYRQAPGKERELVAAITRGGSTYYADSVKGRFTISRDNAKNTVYLQMNSLKPEDPAVYYCSATHVSRRWGMDYWGEGTQVTVSS,high polyreactivity
15,QVQLVDSVGGLVQAGGSLRLSCAASGRTFSNYAMGWYRQAPGKERQLVAAISGTGDNTYYADSVKGRFTISRDNAKNTVYLQMNSLKPEDTAVYYCKTVYYGWPRRYGYWGQGTQVTVSS,high polyreactivity
16,QVQLVDTGAGLVQAGGSLRISCAPSGNIFVDNVMGWYRQAPGKERELVAAIDYSGGSTYYADSVKGRFTISRDNAKNNVYLQMNSLKPEDTAVYYCNARTYYGFGMDFWGQGTQVTVSS,low polyreactivity

row,Sequence,polyreactivity (PSR sort gate)
1,QVQLVDTGGGFVQAGGSLRLSCAASGRTFPYYAMGLYRQAPGKERELVAAMTRGVRTQYADSVKGRFTISRDNAKNTVYLQMNSLKPEDTAVYYCAREDWGSYSDMDSWGQGTQVTVSS,low polyreactivity
2,QVQLVEAGGGLGQAGGSLRLSCAASGFTFYRYARGWYRQAPGKERELVAAISSSGGRTYYADSVKGRFTISRDTAKNTVYLQMNSLKPEDTAVYYCNVVRLQSYYGPFDYWGQGTQVTVSS,high polyreactivity
3,QVQLVEAGGGLVQAGGRLRLSCAASGIIIVPYTMGWYRQAPGKERELVAAISRSGGRTYYADSVKGRFTISRDNAKNTVYLQMNSLKPEDTAVYDCNKRSLYYGYYLYYRMDYWGQGTQVTVSS,high polyreactivity
4,QVQLVEAGGGLVQAGGSLRFSCAASGYIVRSYAMGWYRQAPGKERELVAAITRSGGSTYYADSVKGRFSISRDNAQNSVYLQMNSLKPEDTAVYYCTAKRFRTGFDYWGQGTQVTVSS,low polyreactivity
5,QVQLVEAGGGLVQAGGSLRLSCAASGITCRNDAIGWYRQAAGKERELVADITTGGSTYADSVKGRFTISRDNAKNTVYLQLISLKPEDTAVYYFAADRDFRTPRLYYWGQGTQVTVSS,low polyreactivity
6,QVQLVEAGGGLVQAGGSLRLSCAASGLTFTVYAMGWYRQAPGKERELVAAITGSGTSTYYADSVKGRFTISRDNAKNTVYLQMNSLKPEDTAVYDCAADLYYYGFFWDFGDGFDYWGQGTQVTVSS,low polyreactivity
7,QVQLVEAGGGLVQAGGSLRLSCAASGQIFRKNARGWYSQAPGKERELVAAINSGGSTKYADSVKGRFTISRDNAKNTVYLQMNSLKPEDTAVDYCAARGRYGVPPGRAHDNWRQGTQVTVSS,high polyreactivity
8,QVQLVEAGGGLVQAGGSLRLSCAASGRIFYSNAMGWCRQAPGKERELVAAITWRGGSTYYADSVKGRFTISRDNAKNTVYLQMNSLKPEDTAVYYCATDGYDDTHYYYLGQGTQVTVSS,low polyreactivity
9,QVQLVEAGGGLVQAGGSLRLSCAASGYTFGPNAMGWYRQAPGKEREFVAAISWSGTSTYYADYVKGRFTISRDNAKNTDYLQMNSLKPEDTAVYYCAARSYRYVSRREYWGQGTLVTVSS,high polyreactivity
10,QVQLVEAGGGLVQAGGSLRLSCASSGRIFNLYAMALYRQAPGKERELVAAINWSGDRTSYADSVKGRFTISRDNAKNTVYLQMNSLKPEDTAVYYCAAEYGLGDDTAYGYWGQGTQVTVSS,low polyreactivity
11,QVQLVEAGGGLVQAGGSLRLSGAASGSIFDYNAMGWYRQAPGKERELVASISYSGGSTYYADSVKGRFTISRDTAKNTVYLQMNSLKPEDTAVYYCNARFYWRWHTAYDYWGQGTQVTVSS,high polyreactivity
12,QVQLVEAGGRLVQAGGSLRLSCAASGITFTYYAMGGYRQPPGKDMELVAAISWSGGSTDYADSVKGRFTISRDNAKNTVYLQMNSLKPEDTAFYYCAATFSRFAYYYWGQGTPVTVSS,high polyreactivity
13,QVQLVEAGRGLVHAGCSLRLSCASSGNIFANYSMGWYRQAPGKERELVAAIRWSASRTYYADSVKGRFTISRDNAMNTVYLQMNSLKPEDTAVYYCAATIDTLWDYYYDYWGQGSQVTVSS,high polyreactivity
14,QVQLVELGGGLVQAGGILRLSCAASGSIFSWNDMGWYRQAPGKERELVAAITSGGSTYYADSVKGRFTISRDNAKNTVYLQMNSLKPEDTAVYYCAAGQDLHDFDYWGQGTQVTVSS,low polyreactivity
15,QVQLVELGGGLVQAGGSLRLSCAASGSTFEVYAMGWYRQAPGKERELVAVINVSDGSTYYADSVKGRFTISRDNAKNTVYLQMNSLKPEDTAVYYCAAYRKGKLRMEYWGQGTQVTVSS,low polyreactivity
16,QVQLVERGGGLVQAGGSLRLSCAASGRIFYVNTMGCYRQAPGKERELVATISSAASTNYADSVKGRFTISRDHAKNTVYLQMNSLKPEETAVYYCNAALYKEYYYWGQGTQVTVSS,low polyreactivity
